Paper PMC6336354, “A transient helix in the disordered region of dynein light intermediate chain links the motor to structurally diverse adaptors for cargo transport” (PLoS Biology, 2019)

T1: SPDL1(2–359)::Strep-tag II (human, UniProt Q96EA4 2-359)
T1 construct: human Spindly (SPDL1), N-terminal region, residues 2-359; also called Spindly; source: E. coli BL21, purified (Ni-NTA, TEV cleavage, Strep-Tactin; dialysis or SEC); not shown: 6xHis::MBP, N-terminal, cleaved; Strep-tag II (after linker GSGSGR), C-terminal, kept
T1 sequence (looked up): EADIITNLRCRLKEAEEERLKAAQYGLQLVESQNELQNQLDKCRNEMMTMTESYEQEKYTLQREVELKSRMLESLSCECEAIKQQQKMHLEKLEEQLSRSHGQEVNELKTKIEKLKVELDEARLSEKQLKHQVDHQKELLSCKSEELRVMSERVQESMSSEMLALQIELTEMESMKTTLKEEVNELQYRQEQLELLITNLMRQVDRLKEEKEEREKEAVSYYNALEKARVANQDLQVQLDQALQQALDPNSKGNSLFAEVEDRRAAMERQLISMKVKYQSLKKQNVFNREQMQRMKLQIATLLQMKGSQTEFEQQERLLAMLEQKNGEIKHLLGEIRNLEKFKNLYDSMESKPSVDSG

T2: NIN(1–693)::Strep-tag II (human, UniProt Q8N4C6 1-693)
T2 construct: human ninein (NIN), N-terminal fragment, residues 1-693 of 2,090; also called ninein; source: E. coli Rosetta, purified (Ni-NTA, TEV cleavage, Strep-Tactin; dialysis or SEC); not shown: 6xHis::MBP, N-terminal, cleaved; Strep-tag II (after linker GSGSGR), C-terminal, kept
T2 sequence (looked up): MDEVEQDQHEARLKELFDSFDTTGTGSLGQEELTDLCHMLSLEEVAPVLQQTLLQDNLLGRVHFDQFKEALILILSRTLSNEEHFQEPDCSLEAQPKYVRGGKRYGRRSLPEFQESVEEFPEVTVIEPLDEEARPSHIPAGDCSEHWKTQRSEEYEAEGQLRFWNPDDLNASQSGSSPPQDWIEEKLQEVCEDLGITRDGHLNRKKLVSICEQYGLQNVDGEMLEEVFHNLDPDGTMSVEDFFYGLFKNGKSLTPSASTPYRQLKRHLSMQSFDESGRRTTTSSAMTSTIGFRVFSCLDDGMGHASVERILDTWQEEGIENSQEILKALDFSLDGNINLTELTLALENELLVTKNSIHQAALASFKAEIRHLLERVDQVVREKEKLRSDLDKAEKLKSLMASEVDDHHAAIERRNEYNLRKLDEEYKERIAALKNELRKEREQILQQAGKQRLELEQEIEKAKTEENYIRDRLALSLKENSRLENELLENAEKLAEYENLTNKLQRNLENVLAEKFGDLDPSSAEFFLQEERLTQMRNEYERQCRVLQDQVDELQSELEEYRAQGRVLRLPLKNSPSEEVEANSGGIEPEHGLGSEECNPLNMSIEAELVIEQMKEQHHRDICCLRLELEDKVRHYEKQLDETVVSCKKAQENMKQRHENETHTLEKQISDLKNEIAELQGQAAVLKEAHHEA


What was measured:
[1] = biological target: T1, SPDL1(2–359)::Strep-tag II; experiment: pull-down; GST::LIC::6xHis (50 pmol) with 50 or 250 pmol adaptor and glutathione agarose, 1 h at 4°C, 150 μL of 50 mM HEPES, 100 mM NaCl, 5 mM DTT, pH 7.5, 0.1% Tween 20; Coomassie staining and immunoblot against Strep-tag II; settings: both partners purified
[2] = biological target: T2, NIN(1–693)::Strep-tag II; experiment: as above; settings: both partners purified

| binding result [1] | binding result [2] | Binder |
| --- | --- | --- |
| binds | binds | GST::LIC1(402–471)::6xHis (domain or fragment, human, single N-terminal tryptophan added in the construct; human dynein light intermediate chain 1 (DYNC1LI1), residues 402-471; source: E. coli BL21, purified (glutathione agarose, Ni-NTA; dialysis or SEC); not shown: GST, N-terminal, kept; 6xHis (after linker GSGSG), C-terminal, kept) WPGGSPRTPNRSVSSNVASVSPIPAGSKKIDPNMKAGATSEGVLANFFNSLLSKKTGSPGGPGVSGGSPAG |
| binds | binds | GST::LIC2(375–450)::6xHis (domain or fragment, human, single N-terminal tryptophan added in the construct; source: E. coli BL21, purified (glutathione agarose, Ni-NTA; dialysis or SEC); not shown: GST, N-terminal, kept; 6xHis (after linker GSGSG), C-terminal, kept) WATPTRASESPARGPSGSPRTQGRGGPASVPSSSPGTSVKKPDPNIKNNAASEGVLASFFNSLLSKKTGSPGSPGAG |
| binds | binds | GST::LIC2(375–492)::6xHis (domain or fragment, human, single N-terminal tryptophan added in the construct; also called LIC2-C; source: E. coli BL21, purified (glutathione agarose, Ni-NTA; dialysis or SEC); not shown: GST, N-terminal, kept; 6xHis (after linker GSGSG), C-terminal, kept) WATPTRASESPARGPSGSPRTQGRGGPASVPSSSPGTSVKKPDPNIKNNAASEGVLASFFNSLLSKKTGSPGSPGAGGVQSTAKKSGQKTVLSNVQEELDRMTRKPDSMVTNSSTENEA |
| binds | binds | GST::LIC1(414–471)::6xHis (domain or fragment, human, single N-terminal tryptophan added in the construct; human dynein light intermediate chain 1 (DYNC1LI1), residues 414-471; source: E. coli BL21, purified (glutathione agarose, Ni-NTA; dialysis or SEC); not shown: GST, N-terminal, kept; 6xHis (after linker GSGSG), C-terminal, kept) WSSNVASVSPIPAGSKKIDPNMKAGATSEGVLANFFNSLLSKKTGSPGGPGVSGGSPAG |
